Changes are numbered by the printed parent chain. Read-outs that look alike come from different tables or passages of the source.
T1: human CD21 protein (human, UniProt P20023 21-971, limits assumed)
T1 construct: the Biacore set-up is not described; also called huCD21; CR2
T1 sequence (looked up): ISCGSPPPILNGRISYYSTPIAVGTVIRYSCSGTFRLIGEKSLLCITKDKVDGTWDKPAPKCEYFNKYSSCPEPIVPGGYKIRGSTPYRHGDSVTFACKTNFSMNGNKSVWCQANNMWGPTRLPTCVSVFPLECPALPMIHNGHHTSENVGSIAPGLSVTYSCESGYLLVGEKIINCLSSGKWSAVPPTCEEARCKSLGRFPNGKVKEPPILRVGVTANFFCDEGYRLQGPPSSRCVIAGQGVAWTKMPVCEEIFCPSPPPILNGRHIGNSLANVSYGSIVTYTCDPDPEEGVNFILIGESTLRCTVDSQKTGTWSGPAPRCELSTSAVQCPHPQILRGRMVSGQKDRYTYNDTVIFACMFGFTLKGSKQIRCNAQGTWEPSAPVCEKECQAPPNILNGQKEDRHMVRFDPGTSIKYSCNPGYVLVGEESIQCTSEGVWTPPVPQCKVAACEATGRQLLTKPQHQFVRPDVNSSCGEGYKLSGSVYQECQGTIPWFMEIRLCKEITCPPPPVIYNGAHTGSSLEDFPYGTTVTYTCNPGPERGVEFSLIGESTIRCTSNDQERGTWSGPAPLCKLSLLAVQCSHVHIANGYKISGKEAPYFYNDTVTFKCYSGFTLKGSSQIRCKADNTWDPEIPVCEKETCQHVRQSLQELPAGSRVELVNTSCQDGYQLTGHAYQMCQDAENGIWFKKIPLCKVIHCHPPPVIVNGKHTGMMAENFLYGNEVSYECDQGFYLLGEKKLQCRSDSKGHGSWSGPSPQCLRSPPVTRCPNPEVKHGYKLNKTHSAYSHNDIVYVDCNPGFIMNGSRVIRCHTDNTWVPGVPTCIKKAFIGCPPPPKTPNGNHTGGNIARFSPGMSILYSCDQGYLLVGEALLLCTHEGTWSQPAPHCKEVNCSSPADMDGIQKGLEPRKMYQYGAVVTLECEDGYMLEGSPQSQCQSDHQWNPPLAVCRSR

T2: human CD21 on Raji B cells or primary B cells (human, UniProt P20023 21-1033)
T2 sequence (looked up): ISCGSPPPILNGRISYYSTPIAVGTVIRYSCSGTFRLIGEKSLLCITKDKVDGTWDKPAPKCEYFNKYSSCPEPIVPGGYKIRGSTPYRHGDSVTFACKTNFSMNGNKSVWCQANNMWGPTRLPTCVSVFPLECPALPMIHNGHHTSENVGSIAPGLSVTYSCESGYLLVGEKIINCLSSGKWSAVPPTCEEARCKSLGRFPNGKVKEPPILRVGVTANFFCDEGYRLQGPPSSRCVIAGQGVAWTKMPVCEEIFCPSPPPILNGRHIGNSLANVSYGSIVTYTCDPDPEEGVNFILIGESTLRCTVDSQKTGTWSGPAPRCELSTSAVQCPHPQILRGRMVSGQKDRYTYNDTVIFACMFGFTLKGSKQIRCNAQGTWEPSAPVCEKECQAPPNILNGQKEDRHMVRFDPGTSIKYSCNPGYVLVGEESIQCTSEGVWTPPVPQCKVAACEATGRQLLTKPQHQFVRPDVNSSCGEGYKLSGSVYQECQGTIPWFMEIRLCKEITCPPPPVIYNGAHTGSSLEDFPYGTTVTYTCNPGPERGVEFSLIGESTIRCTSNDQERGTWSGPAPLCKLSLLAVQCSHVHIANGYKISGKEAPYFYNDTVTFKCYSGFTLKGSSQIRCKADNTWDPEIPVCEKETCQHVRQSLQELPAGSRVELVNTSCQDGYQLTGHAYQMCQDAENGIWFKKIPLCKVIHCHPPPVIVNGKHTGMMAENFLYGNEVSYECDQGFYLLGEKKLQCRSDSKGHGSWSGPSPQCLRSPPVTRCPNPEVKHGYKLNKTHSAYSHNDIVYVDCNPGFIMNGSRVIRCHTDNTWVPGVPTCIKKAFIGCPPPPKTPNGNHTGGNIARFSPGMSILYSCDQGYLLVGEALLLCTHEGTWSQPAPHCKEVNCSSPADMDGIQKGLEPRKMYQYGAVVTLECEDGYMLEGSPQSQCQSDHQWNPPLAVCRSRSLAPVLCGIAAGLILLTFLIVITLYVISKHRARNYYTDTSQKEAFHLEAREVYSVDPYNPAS

B1: Ab416 (antibody, human IgG1, kappa, V domains shown)
VH: QVQLVQSGAEVKKPGSSVKVSCKASGGTFSSYAISWVRQAPGQGLEWMGRIIPILGIANYAQKFQGRVTITADKSTSTAYMELSSLRSEDTAVYYCAREDDSSGYYQDWGQGTLVTVSS
VL: EIVMTQSPATLSVSPGERATLSCRAGQSINSYLAWYQQKPGQAPRLLIYDASTRATGIPARFSGSGSGTEFTLTISSLQSEDFAVYYCQQYEYWYTFGQGTKLEIKR
notes: IgG1
B2: Ab194 (antibody, human IgG1, kappa, V domains shown)
VH: B1 VH with S31T
VL: B1 VL
notes: full-length human IgG1
B3: Ab204 (antibody, human IgG1, kappa, V domains shown)
VH: B1 VH with T28E, F29L, S30Q, S31D, Y32L, S102I
VL: B1 VL with Y32H
notes: full-length human IgG1
B4: Ab627 (antibody, human IgG1, kappa, V domains shown)
VH: B1 VH with D100E, S102I
VL: B1 VL with S28K, N30S, T96S
notes: IgG1
B5: Ab421 (antibody, human IgG1, kappa, V domains shown)
VH: B1 VH with S31T, S102I
VL: B1 VL with Y32H
notes: IgG1
B6: Ab424 (antibody, human IgG1, kappa, V domains shown)
VH: B1 VH with S31T, S102I
VL: B1 VL
notes: IgG1
B7: Ab422 (antibody, human IgG1, kappa, V domains shown)
VH: B1 VH with T28E, F29L, S30Q, S31T, Y32L, S102I
VL: B1 VL
notes: IgG1
B8: Ab630 (antibody, human IgG1, kappa, V domains shown)
VH: B1 VH with D100E, S102I
VL: B1 VL with E1D, N30S, T53S, T96S
notes: IgG1
B9: Ab419 (antibody, human IgG1, kappa, V domains shown)
VH: B1 VH with T28E, F29L, S30Q, S31T, Y32L, S102I
VL: B1 VL with Y32H
notes: IgG1
B10: Ab631 (antibody, human IgG1, kappa, V domains shown)
VH: B1 VH with D100E, S102I
VL: B1 VL with S28K, N30S, T53S, T96S
notes: IgG1
B11: Ab632 (antibody, human IgG1, kappa, V domains shown)
VH: B1 VH with D100E, S102I
VL: B1 VL with N30S, S31H, T53S, T96S
notes: IgG1
B12: Ab420 (antibody, human IgG1, kappa, V domains shown)
VH: B1 VH with S102I
VL: B1 VL with Y32H
notes: IgG1
B13: Ab417 (antibody, human IgG1, kappa, V domains shown)
VH: B1 VH with T28E, F29L, S30Q, S31D, Y32L, S102I
VL: B1 VL
notes: IgG1
B14: Ab629 (antibody, human IgG1, kappa, V domains shown)
VH: B1 VH with D100E, S102I
VL: B1 VL with N30S, S31R, T96S
notes: IgG1
B15: Ab628 (antibody, human IgG1, kappa, V domains shown)
VH: B1 VH with D100E, S102I
VL: B1 VL with N30S, S31H, T96S
notes: IgG1
B16: Ab633 (antibody, human IgG1, kappa, V domains shown)
VH: B1 VH with D100E, S102I
VL: B1 VL with N30S, S31R, T53S, T96S
notes: IgG1

Tests used:
[1] = molecular target: cyno CD21 protein (cynomolgus monkey); test: SPR (Biacore)
human CD21 protein [2] = molecular target: T1, human CD21 protein; test: SPR (Biacore)
[3] = molecular target: T2, human CD21 on Raji B cells or primary B …; test: cell-based or functional assay
[4] = molecular target: T2, human CD21 on Raji B cells or primary B …; test: cell-based or functional assay; remark: listed apart in the source
[5] = molecular target: cyno CD21 protein (cynomolgus monkey); test: affinity KD; method not restated (Biacore elsewhere)
human CD21 protein [6] = molecular target: T1, human CD21 protein; test: as above
insulin = insulin (UniProt P01308); test: polyreactivity ELISA on coated insulin; third number of the cell
Sequence of insulin (P01308 25-54 limits assumed, chain 1 of 2): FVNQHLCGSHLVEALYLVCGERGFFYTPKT
Sequence of insulin (P01308 90-110 limits assumed, chain 2 of 2): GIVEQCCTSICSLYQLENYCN

[7] = molecular target: cyno CD21 protein (cynomolgus monkey); test: SPR (Biacore); remark: listed apart in the source
human CD21 protein [8] = molecular target: T1, human CD21 protein; test: SPR (Biacore); remark: listed apart in the source
[9] = molecular target: cyno CD21 protein (cynomolgus monkey); test: SPR (Biacore), KD against Ab89
human CD21 protein [10] = molecular target: T1, human CD21 protein; test: SPR (Biacore), KD against Ab89
[11] = molecular target: T2, human CD21 on Raji B cells or primary B …; test: competition with human C3d on Raji B cells
[12] = molecular target: T2, human CD21 on Raji B cells or primary B …; test: competition with human C3d on primary B cells

| Binder | Kd [1] | Kd (human CD21 protein [2]) | pAKT inhibition, IC50, nM; Primary B cells [3] | pAKT inhibition, IC50, nM; Raji B cells [3] | pAKT inhibition, IC50, nM; Primary B cells [4] | pAKT inhibition, IC50, nM; Raji B cells [4] | Kd [5] | Kd (human CD21 protein [6]) | insulin-binding score (ratio to buffer well) (insulin) | Kd [7] | Kd (human CD21 protein [8]) | fold improvement of KD over Ab89 [9] | fold improvement of affinity over Ab89 (human CD21 protein [10]) | IC50 [11] | IC50 [12] |
| --- | --- | --- | --- | --- | --- | --- | --- | --- | --- | --- | --- | --- | --- | --- | --- |
| B1 | 9.13 nM | 0.78 nM | 14.6 nM | 8.59 nM | 14.6 nM | 8.59 nM | 9.73 nM | 0.78 nM | 2 | – | – | – | – | – | – |
| B2 | – | – | – | – | – | – | – | – | – | 9.16 nM | 0.81 nM | 2 fold | ~81 fold | 0.009 nM | 0.006 nM |
| B3 | – | – | – | – | – | – | – | – | – | 0.06 nM | 0.81 nM | 357 fold | ~81 fold | 0.005 nM | 0.007 nM |
| B4 | – | – | – | – | – | – | 0.15 nM | 0.02 nM | – | – | – | – | – | – | – |
| B5 | 0.25 nM | 2.26 nM | 56.2 nM | 8.59 nM | 56.2 nM | 8.59 nM | 0.25 nM | 2.26 nM | 2 | – | – | – | – | – | – |
| B6 | 0.03 nM | 0.05 nM | 11.6 nM | 9.38 nM | 11.6 nM | 9.38 nM | 0.03 nM | 0.05 nM | 2 | – | – | – | – | – | – |
| B7 | 0.24 nM | 0.04 nM | 9.98 nM | 15.8 nM | 9.98 nM | 15.8 nM | 0.24 nM | 0.04 nM | 2 | – | – | – | – | – | – |
| B8 | – | – | – | – | – | – | 0.09 nM | 0.01 nM | – | – | – | – | – | – | – |
| B9 | 0.21 nM | 2.38 nM | 47.8 nM | 11.2 nM | 47.8 nM | 11.2 nM | 0.21 nM | 2.38 nM | 2 | – | – | – | – | – | – |
| B10 | – | – | – | – | – | – | 0.19 nM | 0.03 nM | – | – | – | – | – | – | – |
| B11 | – | – | – | – | 4.43 nM | – | 0.08 nM | 0.01 nM | – | – | – | – | – | – | – |
| B12 | 0.22 nM | 2.26 nM | 61.1 nM | 26.2 nM | 61.1 nM | 26.2 nM | 0.22 nM | 2.26 nM | 2 | – | – | – | – | – | – |
| B13 | 0.08 nM | 0.02 nM | 3.94 nM | 8.91 nM | 3.94 nM | 8.91 nM | 0.08 nM | 0.02 nM | 2 | – | – | – | – | – | – |
| B14 | – | – | – | – | – | – | 0.1 nM | 0.02 nM | – | – | – | – | – | – | – |
| B15 | – | – | – | – | 11.7 nM | – | 0.11 nM | 0.01 nM | – | – | – | – | – | – | – |
| B16 | – | – | – | – | – | – | 0.12 nM | 0.02 nM | – | – | – | – | – | – | – |

— US20240376225A1 (CHILDREN S MEDICAL CENTER, published 2024)
